These results are taken from PMC7614720.

The data set deals with C[C@@H](O)[C@H]1C(=O)N2C(C(=O)O)=C([C@H]3CCCO3)S[C@H]12. As to the kind of experiment: purified protein. The following applies: two Zn2+ ions active site.

For the substance VIM-2 (Pseudomonas aeruginosa), the Michaelis-Menten constant (Km) is 5.11 µM, the kcat is 36.7 s⁻¹ and the specificity constant (kcat/Km) worked out at 7.17e+06 M⁻¹ s⁻¹.

A word on the Km: it is the concentration of substrate that gives half-maximal velocity. For orientation: kcat means the maximal rate divided by the concentration of active sites. Usually kcat/Km stands for the turnover number divided by the Michaelis constant.
